Square brackets hold non-standard residues; d marks the D form. Ends that are not written are not given here. deamidated = deamidated asparagine; Met(O) = CS(=O)CC[C@H](N)C(=O)O

The target in this test is T1, mouse ADAMTS7 (Mus musculus, UniProt Q68SA9).
T1 construct: Full-length mouse Adamts7 1-1857 (Uniprot Q68SA9, WT or E373Q catalytic mutant); expressed in transfected cells; host or cells: Human Coronary Artery Smooth Muscle Cells (HCA-SMC, Lonza), adenovirus 50 MOI
T1 sequence (Q68SA9 221-1657): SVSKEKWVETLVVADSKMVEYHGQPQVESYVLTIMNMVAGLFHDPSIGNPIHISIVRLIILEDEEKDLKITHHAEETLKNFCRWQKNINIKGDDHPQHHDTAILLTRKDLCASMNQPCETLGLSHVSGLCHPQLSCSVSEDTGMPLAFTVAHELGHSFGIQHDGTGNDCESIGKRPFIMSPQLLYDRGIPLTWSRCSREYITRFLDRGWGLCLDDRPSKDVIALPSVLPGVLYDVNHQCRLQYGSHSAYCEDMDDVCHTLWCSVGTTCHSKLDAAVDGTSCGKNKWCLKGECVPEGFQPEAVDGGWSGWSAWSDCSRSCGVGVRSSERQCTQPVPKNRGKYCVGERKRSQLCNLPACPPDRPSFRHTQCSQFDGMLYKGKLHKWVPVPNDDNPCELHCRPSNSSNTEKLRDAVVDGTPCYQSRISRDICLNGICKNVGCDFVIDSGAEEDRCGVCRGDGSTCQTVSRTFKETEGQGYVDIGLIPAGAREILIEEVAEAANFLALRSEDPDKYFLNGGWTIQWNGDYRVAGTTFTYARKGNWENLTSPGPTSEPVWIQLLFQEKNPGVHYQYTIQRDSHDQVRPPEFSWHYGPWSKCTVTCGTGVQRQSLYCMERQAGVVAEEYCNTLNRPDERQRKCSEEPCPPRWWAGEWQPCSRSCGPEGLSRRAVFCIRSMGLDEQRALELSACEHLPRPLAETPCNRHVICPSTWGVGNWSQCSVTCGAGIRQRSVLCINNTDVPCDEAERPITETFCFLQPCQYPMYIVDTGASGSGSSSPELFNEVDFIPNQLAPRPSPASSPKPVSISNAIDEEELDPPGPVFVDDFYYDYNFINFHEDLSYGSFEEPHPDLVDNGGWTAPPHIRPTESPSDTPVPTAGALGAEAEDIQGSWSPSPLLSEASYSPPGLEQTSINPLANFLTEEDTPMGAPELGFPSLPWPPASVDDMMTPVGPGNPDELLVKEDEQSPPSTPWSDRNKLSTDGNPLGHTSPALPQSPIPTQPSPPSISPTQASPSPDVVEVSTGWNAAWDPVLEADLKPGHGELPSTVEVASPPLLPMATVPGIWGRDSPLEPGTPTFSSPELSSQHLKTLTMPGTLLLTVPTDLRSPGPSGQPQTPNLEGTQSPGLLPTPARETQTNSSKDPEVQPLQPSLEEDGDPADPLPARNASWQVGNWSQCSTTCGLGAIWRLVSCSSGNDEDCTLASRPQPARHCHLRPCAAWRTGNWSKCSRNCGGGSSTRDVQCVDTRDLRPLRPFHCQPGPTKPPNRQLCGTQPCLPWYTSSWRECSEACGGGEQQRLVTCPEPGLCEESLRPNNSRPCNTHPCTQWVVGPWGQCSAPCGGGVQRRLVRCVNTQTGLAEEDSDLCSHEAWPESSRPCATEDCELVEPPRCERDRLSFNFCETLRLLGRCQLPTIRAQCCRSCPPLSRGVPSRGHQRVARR
The test is described as follows: TMT10 TAILS N-terminomics, SMC1 experiment (Ad-mADAMTS7 WT vs EQ vs Luc, technical replicates, trypsin digest). The format is cell-based. As to conditions: TAILS neo-N-terminal peptide abundance; log fold change, Ad-mADAMTS7 WT over Luc. In outline: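 Full-length mouse ADAMTS7 (WT or E373Q mutant, C-terminal 3xFLAG) or luciferase was transduced via adenovirus, 50 MOI, into HCA-SMC (SMC1, SMC2) or HUVEC. SMC1: pooled media, technical triplicates 400 ug; SMC2: process triplicates 300 ug; HUVEC: process triplicates 200 ug, bFGF2 10 ng/ml.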
For “CDC37_43 (FQKEKEELDR; listed as Homo sapiens)”, the logFC.mWT.over.Lux is 1.75.
“CDH11_467 (HQEAKVPVAIR; listed as Homo sapiens)”: the logFC.mWT.over.Lux is reported as 2.02.
With “CLEC11A_50 (HLQEALGLPAGR; listed as Homo sapiens)”, the logFC.mWT.over.Lux was found to be 1.08.
In the case of “COL1A2_80 (QYDGKGVGLGPGPMGLMGPR; listed as Homo sapiens)” it was 2.55; in that of “COL1A2_91 (GPMGLMGPR; listed as Homo sapiens)”, 1.09.
The same measure for “COL1A2_113 (FQGPAGEPGEPGQTGPAGAR; listed as Homo sapiens)”: 1.66; for “COL1A2_270 (VGNAGPAGPAGPR; listed as Homo sapiens)”: 3.51; for “COL1A2_305 (LTGAKGAAGLPGVAGAPGLPGPR; listed as Homo sapiens)”: 1.46.
The same measure for “COL1A2_389 (SAGPPGPPGLR; listed as Homo sapiens)”: 1.12.
On to “COL1A2_425 (ASGPAGVR; listed as Homo sapiens)”, for which the logFC.mWT.over.Lux was 1.17.
In turn, “COL1A2_630 (VGTAGPSGPSGLPGER; listed as Homo sapiens)” displayed a logFC.mWT.over.Lux of 1.18.
Consider “COL1A2_681 (VGAPGPAGATGDR; listed as Homo sapiens)”, for which the logFC.mWT.over.Lux is reported as 1.27.
In the case of “COL1A2_731 (AAGQPGAKGER; listed as Homo sapiens)”, the logFC.mWT.over.Lux is on record as 0.84.
The same measure for “COL1A2_866 (LLGAPGILGLPGSR; listed as Homo sapiens)”: 3.48; for “COL1A2_960 (AGAPGPHGPVGPAGKHGNR; listed as Homo sapiens)”: 2.56; for “COL1A2_1028 (LQGLPGIAGHHGDQGAPGSVGPAGPR; listed as Homo sapiens)”: 1.51.
The same measure for “COL1A2_1037 (HHGDQGAPGSVGPAGPR; listed as Homo sapiens)”: 2.30.
In the case of “COL1A2_1127 (SLRPKDYEVDATLKSLNNQIETLLTPEGSR; listed as Homo sapiens)” it was 2.23.
Substance “COL4A2_71 (YNGPPGLQGFPGLQGR; listed as Homo sapiens)” returned a logFC.mWT.over.Lux of 1.77.
Consider “COL4A2_172 (YALPKEER; listed as Homo sapiens)”, for which the logFC.mWT.over.Lux was 5.97.
In the case of “COL5A1_544 (SQAQAILQQAR; listed as Homo sapiens)” it was 0.87; in that of “COL8A1_90 (MKEIQPAPR; listed as Homo sapiens)”, 1.10.
In the case of “COL18A1_1505 (LQPPVVQLHDSNPYPR; listed as Homo sapiens)” it was 1.41; in that of “ECM1_43 (YAAPPSPPLSR; listed as Homo sapiens)”, 0.63.
The substance “LTBP2_1602 (EAGVHFR; listed as Homo sapiens)” yielded a logFC.mWT.over.Lux of 1.63.
The same measure for “MAN2A1_51 (LQEKIDHLER; listed as Homo sapiens)”: 2.04; for “MAP1B_1065 (LTTPTKQLGAQSPGR; listed as Homo sapiens)”: 1.11.
In the case of “MAP4_815 (AVASTGPSSR; listed as Homo sapiens)” it was 1.29; in that of “MAP4_816 (VASTGPSSR; listed as Homo sapiens)”, 1.44; in that of “MGAT4B_28 (LSGQKGDVVDVYQR; listed as Homo sapiens)”, 1.43.
The same measure for “MMP1_24 (LETQEQDVDLVQKYLEKYYNLKN(deamidated)DGR; listed as Homo sapiens)”: 2.23.
“NID2_291 (HSSVPLGR; listed as Homo sapiens)” showed a logFC.mWT.over.Lux of 3.96.
The same measure for “NID2_374 (VGGPDLKGQVEPWDER; listed as Homo sapiens)”: 4.80; for “NID2_467 (LEDNIGSNTEVFTYNAANKETCEHNHR; listed as Homo sapiens)”: 2.58; for “NID2_951 (YAYPGAR; listed as Homo sapiens)”: 3.35.
For “NUCB1_228 (LKEVWEELDGLDPNR; listed as Homo sapiens)”, the logFC.mWT.over.Lux is on record as 1.70.
The same measure for “NUCB1_317 (FLASTQR; listed as Homo sapiens)”: 4.76.
In the case of “NUCB1_389 (LQQAVLHMEQR; listed as Homo sapiens)” it was 2.25.
The same measure for “OS9_54 ([code q]SQSSDVVIVSSKYKQR; also: modified N-terminal Gln; listed as Homo sapiens)”: 2.67; for “OS9_55 (SQSSDVVIVSSKYKQR; listed as Homo sapiens)”: 2.23.
The substance “PAPPA_41 (AAGPATCATR; listed as Homo sapiens)” came in with a logFC.mWT.over.Lux of 3.83.
In the case of “PDLIM4_104 (IDPEIQDGSPTTSR; listed as Homo sapiens)” it was 1.00.
In the case of “POLR3G_88 (LFCSHWSHIPGFK; listed as Homo sapiens)” it was 1.51.
The same measure for “POSTN_413 (FSDDTLSMDQR; listed as Homo sapiens)”: 2.29; for “POSTN_754 (IITGPEIKYTR; listed as Homo sapiens)”: 1.77.
“POSTN_790 (FIEGGDGHLFEDEEIKR; listed as Homo sapiens)” gave a logFC.mWT.over.Lux of 0.87.
“POSTN_807 (LLQGDTPVR; listed as Homo sapiens)” yielded a logFC.mWT.over.Lux of 1.10.
In the case of “PPP1R18_295 (LSETLTR; listed as Homo sapiens)” it was 3.60; in that of “PSAP_171 (F[Met(O)]ANIPLLLYPQDGPR; listed as Homo sapiens)”, 1.13; in that of “PXDN_1341 (SYQEDKPTKKTR; listed as Homo sapiens)”, 6.62.
In the case of “PXDN_1393 (QKTITDLR; listed as Homo sapiens)” it was 4.88.

The values are drawn from patent publication US20240368668A1, “SUBSTRATES AND BIOMARKERS OF ADAMTS7” (The Broad Institute, Inc., priority 2021, published 2024).
